From patent US20060171935A1, “Protecting cell therapy for neurological disorders including Parkinson's disease” (priority 2005, published 2006)
Changes are numbered by the printed parent chain. Numbers in names are those of the source.

B1: L166P DJ-1: Parkinsonism-associated L166P mutant of human DJ-1, recombinant or plasmid-expressed (protein, UniProt Q99497 1-189, looked up, variant L166P)
chain: MASKRALVILAKGAEEMETVIPVDVMRRAGIKVTVAGLAGKDPVQCSRDVVICPDASLEDAKKEGPYDVVVLPGGNLGAQNLSESAAVKEILKEQENRKGLIAAICAGPTALLAHEIGFGSKVTTHPLAKDKMMNGGHYTYSENRVEKDGLILTSRGPGTSFEFAPAIVEALNGKEVAAQVKAPLVLKD
B2: C53A: DJ-1 cysteine-to-alanine mutant at cysteine 53 (protein, UniProt Q99497 1-189, looked up, variant C53A)
chain: B1 chain with C53A, P166L
B3: Noggin: soluble Noggin, inhibits BMP signaling (protein, UniProt Q13253 28-232, looked up)
Noggin: QHYLHIRPAPSDNLPLVDLIEHPDPIFDPKEKDLNETLLRSLLGGHYDPGFMATSPPEDRPGGGGGAAGGAEDLAELDQLLRQRPSGAMPSEIKGLEFSEGLAQGKKQRLSKKLRRKLQMWLWSQTFCPVLYAWNDLGSRFWPRYVKVGSCFSKRSCSVPEGMVCKPSKSVHLTVLRWRCQRRGGQRCGWIPIQYPIISECKCSC

Tests used:
citrate synthase (CS) = target: T1, citrate synthase (CS) (Sus scrofa, UniProt P00889); assay: Suppression of heat-induced aggregation of citrate synthase (chaperone assay); format: biochemical; details: 0.8 μM CS, 43° C.
T1 construct: purchased Sigma
T1 sequence (P00889 28-464): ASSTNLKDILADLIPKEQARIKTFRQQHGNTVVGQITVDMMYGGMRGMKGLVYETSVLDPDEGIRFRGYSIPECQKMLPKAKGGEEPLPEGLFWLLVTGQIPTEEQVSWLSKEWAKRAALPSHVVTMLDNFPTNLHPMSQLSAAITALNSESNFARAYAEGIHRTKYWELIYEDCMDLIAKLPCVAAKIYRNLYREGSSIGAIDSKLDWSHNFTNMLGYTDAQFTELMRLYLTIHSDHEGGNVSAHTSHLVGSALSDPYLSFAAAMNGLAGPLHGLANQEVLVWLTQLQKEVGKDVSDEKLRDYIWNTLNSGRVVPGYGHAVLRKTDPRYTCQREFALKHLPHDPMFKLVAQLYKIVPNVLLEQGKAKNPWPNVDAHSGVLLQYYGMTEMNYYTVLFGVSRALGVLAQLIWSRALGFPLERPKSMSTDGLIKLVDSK
Experimental: To test the redox regulation of DJ-1, the inventors assayed chaperone activity in the CS aggregation assay in the presence or absence of the reducing agent DTT. […] (FIG. 22D). […] To further test whether redox regulation might govern DJ-1 chaperone activity, reactivation studies using reduced DJ-1 were performed. DTT-reduced DJ-1 was incubated with H2O2 (10 mM in aggregation buffer for 10 min at 4° C. followed by dialysis against aggregation buffer for 2 h), and subsequently chaperone activity was measured in the CS thermal aggregation assay. […] This was not an indirect effect of residual H2O2 on CS aggregation, as H2O2 treatment of CS increased aggregation (unpublished data).
CS aggregation was performed in 40 mM HEPES (pH 7.8), 20 mM potassium hydroxinde, 50 mM potassium chloride, and 10 mM ammonium sulfate, and monitored in a thermostat-controlled fluorescence spectrophotometer with excitation and emission wavelengths at 500 nm and slit widths at 2.5 nm. Insulin aggregation was performed as described (Giasson et al. 2000). CS, insulin, RNase A, and GST were obtained from Sigma; human Hsp27 was obtained from Stressgen.

CD thermal denaturation = format: physicochemical; details: CD at 222 nm, range studied 0-90° C.
Description: (G) Redox regulation is unaffected by the C106A mutation.
Molecular chaperones typically display marked stability to thermal stress (Sastry et al. 2002). […] (FIG. 28).

DJ-1-deficient ES cells = assay: Rescue of DJ-1-deficient ES cells from H2O2, MTT viability; format: cell-based, murine; details: transient transfection, 10 μM H2O2 for 15 h
Experimental: (A) DJ-1 cysteine-to-alanine mutants C106A, C53A, and a triple mutant that harbors mutations at all three cysteines in DJ-1 (C106A/C53A/C46A), as well as L166P, were tested for in vitro chaperone activity by CS aggregation suppression assay. (B) Self-association of DJ-1 cysteine mutants. Murine neuroblastoma CAD cells were transiently cotransfected with Flag-tagged human DJ-1 vectors (either WT or mutant) along with WT YFP-tagged human DJ-1. Lysates were immunoprecipitated with anti-Flag antibodies and probed by Western blotting with an antibody specific for human DJ-1. […] Lysates represent 20% of the input for the immunoprecipitate; Flag-DJ-1 migrates at 22 kDa, and YFP-DJ-1 migrates at 50 kDa. (C) DJ-1-deficient ES cells were transiently transfected with vector alone, WT DJ-1, or DJ-1 cysteine mutants, and exposed to 10 μM H2O2 for 15 h followed by MTT assay. The viability of the cells in the absence of drug treatment was not altered by the expression of WT or mutant DJ-1). Data are shown as the mean±SEM and were analyzed by ANOVA with Fisher's post-hoc test. *p<0.05.
To confirm that altered sensitivity to oxidative stress is a consequence of the loss of DJ-1, ‘rescue’ experiments by overexpressing wild-type or mutant human DJ-1 in ‘knockout’ ES cells were performed. Plasmids encoding human wild-type DJ-1, PD-associated L166P mutant DJ-1, or vector alone, were transiently transfected into DJ-1 deficient clones, and these were subsequently assayed for sensitivity to H2O2 using the MTT viability assay.
In Vivo Assays. ES cells plated in 96-well format (2.3×10^4 cells/well) were treated for 15 hours with H2O2 in ES media deficient in β-mercaptoethanol (Abeliovich et al. 2000). Cell viability (as a percent of untreated control) was determined by MTT assay in triplicate (Fezoui et al. 2000). Annexin V/Propidium Iodide (Molecular probes) staining was performed per the manufacturer's instructions. For dihydrorhodamine-123 staining (DHR, Molecular probes) (Walrand et al. 2003), cells were preincubated for 30 min with DHR (5 μM), washed with PBS, then treated with H2O2 in ES media deficient in β-mercaptoethanol for 15 min at 37° C. The FACS analysis was performed using a FACSTAR sorter (Becton Dickinson). Dopamine uptake assay was performed essentially as described (Farrer et al. 1998). Reported values represent specific uptake from which non-specific uptake, determined in the presence of mazindol, was subtracted, and normalized for protein content (BCA kit, Pierce).

[1] = system: CAD murine neuroblastoma cells; assay: αSyn intracytoplasmic inclusions in CAD cells; format: cell-based; details: co-overexpression with αSyn
Experimental: To further evaluate αSyn aggregation, the inventors performed immunohistochemical analyses of CAD cells transfected with αSyn along with DJ-1 or control vector (FIG. 25). Overexpression of αSyn in neuroblastoma cells induces the formation of visible cytoplasmic aggregates (Lee and Lee 2002) (FIGS. 25J-25L).
(§1) Quantification of CAD cell aggregates was performed using a Zeiss LSM Pascal confocal microscope (Zeiss, Oberkochen, Germany) with a 20× long working distance lens. Images were imported to NIH Image J for analysis. Images from tenrandomly selected fields in each of three wells were quantified for each condition. Cells containing at least one intracytoplasmic aggregate, independent of size or number per cell, were scored as positive for aggregates. This number was divided by the number of transfected cells per field, determined by GFP fluorescence.

[2] = system: CAD murine neuroblastoma cells; assay: Q333P NFL intracytoplasmic inclusions in CAD cells; format: cell-based; details: co-overexpression with Q333P mutant NFL
Experimental: In a separate set of experiments, the inventors assayed the ability of DJ-1 to inhibit aggregation of a second substrate, neurofilament light subunit (NFL). Overexpression of a mutant form of human NFL, Q333P, by transient transfection of CAD murine neuroblastoma cells, leads to the accumulation of intracytoplasmic inclusions (Perez-Olle et al. 2002).
as §1

[3] = system: Undifferentiated ES cells; assay: Q333P mutant NFL toxicity, MTT reduction, undifferentiated ES cells; format: cell-based; details: 72 h
Experimental: FIG. 30 depicts the additional studies of DJ-1 mutations. […] Cells from FIG. 4M were quantified via ToPro3 nuclear staining and are expressed as number of cells per field from ten independent fields in each of three wells. Data are shown as the mean±SEM and were analyzed by ANOVA with Fisher's post-hoc test. *p<0. […] GFP positive transfected cells from FIG. 5A-5L were quantified and are expressed as number of transfected cells per field from ten independent fields in each of three wells. Data are shown as the mean±SEM and were analyzed by ANOVA with Fisher's post-hoc test. *p<0. (C) Overexpression of WT DJ-1, but not L166P mutant DJ-1, rescues cells from Q333P mutant NFL toxicity. HeLa cells were transfected with Q333P mutant NFL along with WT human DJ-1, L166P mutant DJ-1, or vector control. After 72 h, cells were assayed by MTT reduction assay (which detects reduction of 3-(4,5-dimethylthiazol-2-yl)-2,5-diphenyltetrazolium bromide by metabolic enzymes) (Martinat et al. 2004). Data are shown as the mean±SEM and were analyzed by ANOVA with Fisher's post-hoc test. *p<0. […] Undifferentiated ES cells were transfected with Q333P mutant NFL along with WT human DJ-1, C53A mutant DJ-1, or vector control. After 72 h, cells were assayed by MTT reduction assay (Martinat et al. 2004). Data are shown as the mean±SEM and were analyzed by ANOVA with Fisher's post-hoc test. *p<0. […]

DY-1 ES cells = assay: Candidate soluble factors in DY-1 ES cell differentiation to dopamine neurons; format: cell-based, murine; details: added at stages 4-5 of differentiation
Experimental: The availability of marked ES-derived ‘late’ dopamine neurons should facilitate the analysis of candidate soluble and cell-associated factors in the differentiation process. […] Briefly, DY-1 ES cells were differentiated using EB or SDIA and candidate factors were added to the standard differentiation protocol at stages 4-5 of differentiation (Lee et al., 2000).

Molecule | suppression of heat-induced aggregation of CS (chaperone activity) (citrate synthase (CS)) | thermal unfolding transition (CD thermal denaturation) | viability of DJ-1 knockout cells in the presence of H2O2 (DJ-1-deficient ES cells) | number of cells containing αSyn aggregates [1] | accumulation of NFL inclusions [2] | rescue from Q333P mutant NFL toxicity [3] | generation of late dopamine neurons (eYFP fluorescence, DAT immunoreactivity, late DN markers) (DY-1 ES cells)
B1 | abrogated chaperone activity | does not exhibit a thermal unfolding transition | did not significantly alter the viability | fails to do so | failed to inhibit |  | 
B2 | completely abrogates chaperone activity |  | failed to protect |  |  | unable to rescue | 
B3 |  |  |  |  |  |  | did not detect any effect
